Results from patent US20250043319A1, “BIOSYNTHESIS OF CYCLOLAVANDULYL DERIVATIVES OF AROMATIC COMPOUNDS” (Invizyne Technologies, Inc., priority 2022, published 2025).

B1: SvPT: prenyltransferase, Accession: WP_078899560.1, SEQ ID NO: 11 (protein, listed as Streptomyces sp.)
chain: MSEASELADIYSAIEETAQLLDVPCSRDKVQPALAAFGDGLADAHIVFSMATGERYKGELAFDFTVPTAAGDPYAIALANGLVEETDHPIRTLFSDVQKRCPVDSYGVDYGIVGGFKKTYISFPLGDLQRLSALVGIPSMPRALAEHADFFASHGLDDKVSAIAIDYAHRTWNVYFSGIPAEVKEPQTLQSVLQKFGLPEPSEQLMDFIRTSFAMYTTFGWDSTKAERICFSARSSDPTALPAQFEPQIGKFAKSAPYTYTGERVLTYAGALSPSEEFYKLATFYQKTSKLSDRVRPAT
B2: SkPT: prenyltransferase, Accession: Q2L6E3.1, SEQ ID NO: 10 (protein, listed as Streptomyces sp.)
chain: MPGTDDVAVDVASVYSAIEKSAGLLDVTAAREVVWPVLTAFEDVLEQAVIAFRVATNARHEGDFDVRFTVPEEVDPYAVALSRSLIAKTDHPVGSLLSDIQQLCSVDTYGVDLGVKSGFKKVWVYFPAGEHETLARLTGLTSMPGSLAGNVDFFTRYGLADKVDVIGIDYRSRTMNVYFAAPSECFERETVLAMHRDIGLPSPSEQMFKFCENSFGLYTTLNWDTMEIERISYGVKTENPMTFFARLGTKVEHFVKNVPYGVDTQKMVYAAVTSSGEEYYKLQSYYRWRSVSRLNAAYIAARDKEST
B3: NapT8: prenyltransferase, Accession: ABS50461.1, SEQ ID NO: 13 (protein, listed as Streptomyces aculeolatus)
chain: MEGLYAAIEEASGLLDVAPSRDKVWPILSAYELDKVVVAFRVTTRGSKDLDCRFTALPADVNPYRYAVSKGIAEATDHPVGTLLDDVQANIPVTAHGVDFGVVEGFRKTWTFLPGNDLQKLSKVAALPSMPPSLAENLDFYARYGLDDKNSMIGIDYPSRTVNVYFLQFPDETREPETVRAMLRDLGLPEPSEQMLTLAKQAVGIYTTLTWDSPKIQRITFATLVPDAEALPGRIAVEPSVEKFARNVPHTYPGPVQGLYNVASYSGGEYFKLQTYHQLAEGSLEARVLLGAAGAGS
B4: CnqP3PT: prenyltransferase, Accession: WP_047018069.1, SEQ ID NO: 16 (protein, listed as Streptomyces sp.)
chain: MSGAADVERVYSAMEEAARLLDITVSREKVRPALEAYHEVLADAVVVFSMASGRYATELDFSISVPAEAGDPYRVALAKGLTPRTDHPVGRLLADTQEHCPVSMFAFDGEITGGFKKTYAFFPTNDLQSASKLAEIPSMPDSVKENADLFARYGLDKVQMTSIDYKKKAVNLYFSEMSPDILGPDTVRSMLRDMGLKETGETGLTFARRSFSVYPTLNWETGRIERLCFAVISRDPTLAPAERAEDLAKFSKYANNAPYAYAGEARTLVYGLTLTPREEYYKLGSYYQISDIQRKLLKAFDSLND
B5: MzPT2: prenyltransferase, Accession: WP_135330626.1, SEQ ID NO: 19 (protein, listed as Streptomyces sp.)
chain: MSGTAVEKLYSAIEETAGLLDVTCSRDKVWPVLASFEDAIPQAAILFRVATDKRHAGELNLHFMMLPGDVDPYALALSNDLMAKTEHPVGSLLSDIAERFPVESYGIDFGVVKGFQKTWSCFPGNSMQSLSKLAEVPSVPSSLAGNLDFFSRYGLDENVTLVGIDFEHRTMNVYFGEVAELLEPDAVKSMLRDLEMPEPSEQLLNFAKQSFGFYATLSWDSPRIERFCYAAIAPDPMALLDQVEPKIEHFLKTVPYGVDDPKAVYAATSPNDGEFYKIQSYYQWRPRLVNHMHTSVSDSGE
B6: Mcl23PT: prenyltransferase, Accession: AGH68908.1, SEQ ID NO: 15 (protein, listed as Streptomyces sp.)
chain: MSGETDAEELCSAIEETARLVGAPCSREKIWPILTEYRSGFAEGGVVFSAQAGENHAGELDYGLAVPPRIDDPYAHALAHGFVTETDHPVAALLSDIRERCAVTEHFADCGVVGGFRKLYAHFPRDLQKVSEIADIPSMPRAVAENVGLFTRYGLENVVMVGVNYKNKTVSLYFQFTAEGRPRPSAIRSMLGDIGMTEPNERMLDFASNSFRANITLSWDSPKILRVAFAPPPGAGLNLSTVPIPTGPHLEDFVTRAPRAYDGERMNLFAVKWTQDKEFLEVCSYYQLPAGYEPIRQMEIHKEQG
B7: Sr1310PT: prenyltransferase, Accession: WP_057602682.1, SEQ ID NO: 12 (protein, listed as Streptomyces sp.)
chain: MSGAADVERVYAAMEEAAGLLDVSCAREKIYPLLTVFQDTLTDGVVVFSMASGRRSTELDFSISVPVSQGDPYATVVKEGLFQATGSPVDELLADTVAHLPVSMFAIDGEVTGGFKKTYAFFPTDDMPGVAQLAAIPSMPASVAENAELFARYGLDKVQMTSMDYKKRQVNLYFSDLKQEYLQPESVVALARELGLRVPGELGLEFCKRSFAVYPTLNWDTGKIDRLCFAAISTDPTLVPSEDERDIEMFRNYATKAPYAYVGEKRTLVYGLTLSSTEEYYKLGAYYHITDIQRQLLKAFDALED

Test: cell-free cyclolavandulylation activity screening of prenyltransferases, substrate resveratrol
Type: biochemical
Details: cell-free reaction with CLDS and DMAPP (CLPP donor), 28° C., 48 hours, QTOF LC/MS, with vs without prenyltransferase
From the text: (§1) Genes encoding the following prenyltransferases were codon-optimized, synthesized, and cloned into the pET28a vector for protein expression and isolation/purification as described in Example 1. • NphB (Accession: 1ZB6_A) (SEQ ID NO: 8) • AbPT (Accession: KPI30840.1) (SEQ ID NO: 9) • SkPT (Accession: Q2L6E3.1) (SEQ ID NO: 10) • SvPT (Accession: WP_078899560.1) (SEQ ID NO: 11) • Sr1310PT (Accession: WP_057602682.1) (SEQ ID NO: 12) • NapT8 (Accession: ABS50461.1) (SEQ ID NO: 13) • NapT9 (Accession: ABS50490.1) (SEQ ID NO: 14) • Mcl23PT (Accession: AGH68908.1) (SEQ ID NO: 15) • CnqP3PT (Accession: WP_047018069.1) (SEQ ID NO: 16) • AtaWTPT (Accession: AMB20850.1) (SEQ ID NO: 17) • MzPT1 (Accession: WP_135330628.1) (SEQ ID NO: 18) • MzPT2 (Accession: WP_135330626.1) (SEQ ID NO: 19) B. Cell-Free Biosynthesis Reaction with CLPP and Various Aromatic Substrates
(§2) The cyclolavandulyl diphosphate synthase, CLDS was prepared as described in Example 1 and used in the synthesis of CLPP.
(§3) Stocks of the various aromatic compounds used as substrates for cyclolavandulylation activity screening were obtained from the following commercial sources: • Resveratrol (Fisher Scientific) 200 mM stock in DMSO • Luteolin (Fisher Scientific) 200 mM stock in DMSO • Naringenin (Fisher Scientific) 200 mM stock in DMSO • Tryptamine (Fisher Scientific) 200 mM stock in DMSO • Tryptophan (Fisher Scientific) 40 mM stock in water • Olivetolic acid (Toronto Research Chemicals) 200 mM stock in DMSO • Divarinic acid (Toronto Research Chemicals) 200 mM stock in DMSO • Phorolic acid (prepared in house) 200 mM stock in DMSO • Olivetol (Fisher Scientific) 200 mM stock in DMSO • Screening for cell-free biosynthesis was carried out as follows. 10 mM DMAPP, 5 mM MgCl2, 100 mM Tris-HCl (pH=8), and 4 mg/mL CLDS (SEQ ID NO: 4) were combined in a 6.80 mL reaction, which was incubated at 28° C. for 48 hours. This mixture was aliquoted into a 96-well plate (80 μL per well). The various prenyltransferases (18 μL, ˜1 g/L final concentration) listed above were screened across various substrates (2 μL of stock solution, variable concentration shown above), which were added to the wells and incubated at 28° C. for an additional 48 hours.
(§4) Analysis of the reaction mixture was carried out as follows: 50 μL of the reaction mixture were added to 1 mL MeOH. The resulting solution was vortexed, centrifuged at 17,200 g for 5 minutes, and transferred to an HPLC vial for analysis. HRMS-QTOF analyses of the cell free reactions was performed on an Agilent Technologies 6545 Accurate Mass QTOF LC/MS with a reverse-phase column (Agilent Infinity Lab Poroshell 120 ECC18, 2.7 μm, 3.0×50 mm) using positive ESI with 1% MeCN—H2O (0.1% FA) for 2 min followed by a linear gradient of 1-99% MeCN—H2O (0.1% FA) for 14 min with a flow rate of 0.4 mL/min.
(§5) Mass spectrometric (MS) analysis of chromatograms was carried out using MassHunter Qualitative Analysis 10.0. Targeted metabolomics using the exact m/z of the calculated proton adduct [H^+] in the presence and absence of prenyltransferase indicated the presence of cyclolavandulylated product.

Molecule	presence of cyclolavandulylated product, Aromatic Compound (Substrate) Resveratrol
B1	No
B2	No
B3	No
B4	No
B5	No
B6	No
B7	No

Test: cell-free cyclolavandulylation activity screening of prenyltransferases, substrate tryptamine
Type: biochemical
Details: cell-free reaction with CLDS and DMAPP (CLPP donor), 28° C., 48 hours, QTOF LC/MS, with vs without prenyltransferase
From the text: as §1, §2, §3, §4, §5

Molecule	presence of cyclolavandulylated product, Aromatic Compound (Substrate) Tryptamine
B1	No
B2	No
B3	No
B4	No
B5	No
B6	No
B7	No

Test: cell-free cyclolavandulylation activity screening of prenyltransferases, substrate luteolin
Type: biochemical
Details: cell-free reaction with CLDS and DMAPP (CLPP donor), 28° C., 48 hours, QTOF LC/MS, with vs without prenyltransferase
From the text: as §1, §2, §3, §4, §5

Molecule	presence of cyclolavandulylated product, Aromatic Compound (Substrate) Luteolin
B1	No
B2	No
B3	No
B4	No
B5	No
B6	No
B7	No

Test: cell-free cyclolavandulylation activity screening of prenyltransferases, substrate tryptophan
Type: biochemical
Details: cell-free reaction with CLDS and DMAPP (CLPP donor), 28° C., 48 hours, QTOF LC/MS, with vs without prenyltransferase
From the text: as §1, §2, §3, §4, §5

Molecule	presence of cyclolavandulylated product, Aromatic Compound (Substrate) Tryptophan
B1	No
B2	No
B3	No
B4	No
B5	No
B6	No
B7	No

Test: cell-free cyclolavandulylation activity screening of prenyltransferases, substrate olivetolic acid
Type: biochemical
Details: cell-free reaction with CLDS and DMAPP (CLPP donor), 28° C., 48 hours, QTOF LC/MS, with vs without prenyltransferase
From the text: as §1, §2, §3, §4, §5

Molecule	presence of cyclolavandulylated product, Aromatic Compound (Substrate) Olivetolic Acid
B1	No
B2	No
B3	No
B4	No
B5	No
B6	No
B7	No

Test: cell-free cyclolavandulylation activity screening of prenyltransferases, substrate naringenin
Type: biochemical
Details: cell-free reaction with CLDS and DMAPP (CLPP donor), 28° C., 48 hours, QTOF LC/MS, with vs without prenyltransferase
From the text: as §1, §2, §3, §4, §5

Molecule	presence of cyclolavandulylated product, Aromatic Compound (Substrate) Naringenin
B1	No
B2	No
B3	No
B4	No
B5	No
B6	No
B7	No
